# From the supplement of paper PMC10567573
# B1: INTS4 (parent)
# chain: YSSGEFSSGRKWGDDAPKEEVDTG
# B2: NET1 (parent)
# chain: PTPAKRRSSALWSEMLDITMKESL
# Variants of: B1
# Test: protein stability index of a GFP-peptide fusion (GPS, HEK-293T) (PSI 1-6); higher = more stable
# Conditions: c terminus: a fixed tail appended
# 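Also: lentivirally expressed fusions sorted by FACS into six bins by GFP to DsRed ratio, PSI derived from sequencing read proportions per bin multiplied by bin number.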
row,Variant,protein stability index
1,T23M,1.99
2,T23V,2.39
3,T23D,2.96
4,T23G,2.81
5,T23R,2.96
6,T23A,2.35
7,T23E,2.8
8,T23C,2.95
9,T23K,2.46
10,T23N,2.35
11,T23Q,2.15
12,T23L,2.9
13,T23P,1.9
14,T23H,2.35
15,T23S,2.67
16,T23F,2.47
17,T23I,2.3
18,T23Y,2.36
19,T23W,2.05
20,G24H,2.51
21,G24C,2.96
22,G24S,2.65
23,G24R,2.83
24,G24I,2.25
25,G24L,2.76
26,G24N,3.09

row,Variant,protein stability index
1,G24Y,2.28
2,G24F,2.63
3,G24P,2.4
4,G24T,2.72
5,G24A,2.59
6,G24D,2.16
7,G24M,2.68
8,G24K,3.9
9,G24V,2.72
10,G24E,2.74
11,G24Q,2.58
12,D22I,2.66
13,D22C,2.67
14,D22L,2.27
15,D22H,2.48
16,D22R,2.73
17,D22T,2.34
18,D22N,2.74
19,D22Y,2.02
20,D22S,2.17
21,D22Q,2.71
22,D22K,1.65
23,D22E,2.72
24,D22P,2.38
25,D22M,1.63
26,D22F,3.28

row,Variant,protein stability index
1,D22G,2.35
2,D22V,1.86
3,D22W,1.64
4,D22A,2.06
5,E20Y,3.19
6,E20W,1.97
7,V21H,2.74
8,V21C,3.39
9,V21Q,2.73
10,V21R,2.83
11,V21E,2.84
12,V21W,1.82
13,V21I,2.27
14,V21L,2.28
15,V21F,2.58
16,V21D,2.92
17,V21M,2.78
18,V21T,3.31
19,V21Y,2.74
20,V21S,2.54
21,V21N,2.81
22,V21P,3.13
23,V21K,2.8
24,V21G,2.94

# Variants of: B2
# Test: as above
# Conditions: c terminus: a fixed tail appended
row,Variant,protein stability index
1,A10D,3.58
2,A10C,2.18
3,A10F,2.02
4,A10E,2.35
5,A10N,2.67
6,A10T,2.52
7,A10Y,1.63
8,A10K,2.83
9,A10G,3.48
10,A10P,2
11,A10H,2.31
12,A10V,1.58
13,A10L,2.55
14,A10S,2.1
15,A10M,2.14
16,P1R,1.92
17,P1T,1.67
18,P1V,2.63
19,P1W,1.89
20,P1M,1.72
21,P1D,2.12
22,P1A,2.56
23,P1H,3.04
24,P1Q,2.78

row,Variant,protein stability index
1,P1K,2.04
2,P1C,1.75
3,P1I,2.07
4,P1L,2.25
5,P1S,1.45
6,P1N,2.33
7,P1G,2.28
8,L11T,1.71
9,L11C,2.2
10,L11S,1.94
11,L11K,1.62
12,L11V,3.16
13,L11G,4.11
14,L11Y,2.39
15,L11H,3.62
16,L11E,4.75
17,L11Q,2.27
18,L11P,2.75
19,L11N,3.5
20,L11F,1.98
21,L11D,4.29
22,L11M,2.89
23,D17Q,1.85
24,D17M,1.26

row,Variant,protein stability index
1,D17I,2.31
2,D17F,2
3,D17L,2.07
4,D17E,2.07
5,D17P,2.83
6,D17A,1.95
7,D17N,2.75
8,D17G,2.25
9,D17C,1.53
10,D17K,1.25
11,K5I,2.42
12,K5N,2.52
13,K5C,2.38
14,K5M,2.06
15,K5T,2.51
16,K5A,2.34
17,K5W,1.54
18,K5G,2.59
19,K5V,2.41
20,K5S,2.19
21,K5R,2.53
22,K5E,2.54
23,K5D,2.95
24,K5H,2.55

row,Variant,protein stability index
1,R7P,1.96
2,R7T,2.16
3,R7S,2.71
4,R7A,2.61
5,R7K,2.29
6,R7M,2.15
7,R7W,2.36
8,R7Y,2.39
9,R7Q,2.54
10,R7V,2.46
11,R7N,2.85
12,R7E,2.8
13,R7D,3.36
14,R7G,2.38
15,R7F,2.03
16,R7H,2.34
17,S9K,1.64
18,S9I,1.86
19,S9F,2.05
20,S9E,2.4
21,S9G,2.79
22,S9C,1.47
23,S9V,1.88
24,S9Q,2.34

row,Variant,protein stability index
1,S9N,2.21
2,S9T,1.57
3,S9A,2.2
4,M15Y,1.96
5,M15V,2.9
6,M15H,2.38
7,M15E,4.77
8,M15P,4.32
9,M15F,2.04
10,M15Q,3
11,M15W,2.05
12,M15L,2.91
13,M15C,2.38
14,M15D,3.91
15,M15I,2.07
16,M15G,3.83
17,M15K,2.82
18,M15N,3.13
19,L16H,2.85
20,L16N,3.84
21,L16A,2.59
22,L16I,2.84
23,L16E,3.67
24,L16T,2.85

row,Variant,protein stability index
1,L16G,2.33
2,L16M,2.2
3,L16S,3.17
4,L16Q,2.92
5,L16F,2.1
6,L16P,2.38
7,L16Y,2.19
8,W12Y,2.78
9,W12T,4.19
10,W12P,3.9
11,W12D,5.38
12,W12K,3.74
13,W12A,4.09
14,W12I,3.5
15,W12C,4.32
16,W12H,3.62
17,W12E,4.65
18,W12G,4.59
19,W12M,3.51
20,W12S,4.09
21,W12L,3.31
22,W12N,4.79
23,W12V,3.65
24,W12F,3.26

row,Variant,protein stability index
1,W12Q,4.46
2,E14V,1.25
3,E14W,1.69
4,E14C,1.15
5,E14I,3.13
6,E14H,2.2
7,E14N,2.11
8,E14D,2.75
9,E14P,3.15
10,E14T,1.93
11,E14A,1.55
12,E14L,1.5
13,E14F,1.58
14,E14Y,2.2
15,E14S,2.35
16,E14R,2.43
17,E14K,2.87
18,A4V,2.21
19,A4C,1.47
20,A4M,2.07
21,A4H,1.84
22,A4F,2.03
23,A4P,2.11
24,A4S,1.73

row,Variant,protein stability index
1,A4T,1.95
2,A4W,2.27
3,A4E,2.48
4,A4N,2.07
5,A4G,2.3
6,A4R,2.03
7,A4Q,2.57
8,A4D,2.46
9,A4K,2.63
10,A4L,1.85
11,A4Y,1.82
12,A4I,1.99
13,S13I,2.13
14,S13K,2.34
15,S13H,2.88
16,S13F,1.75
17,S13A,1.42
18,S13Q,1.12
19,S13G,2.86
20,S13D,3.58
21,S13Y,2.09
22,S13W,3.21
23,S13P,2.71
24,S13R,2.42

row,Variant,protein stability index
1,S13M,2.64
2,S13N,2.49
3,R6L,1.99
4,R6I,1.84
5,R6N,2.51
6,R6C,1.98
7,R6W,1.99
8,R6M,2.56
9,R6D,2.79
10,R6P,2.02
11,R6E,3.25
12,R6T,1.76
13,R6A,3.48
14,R6F,1.85
15,R6K,2.1
16,R6S,2.42
17,R6V,1.64
18,R6H,4.19
19,S8I,2.03
20,S8F,1.68
21,S8P,2.01
22,S8T,2.9
23,S8G,2.53
24,S8Y,2.28

row,Variant,protein stability index
1,S8Q,2.33
2,S8M,1.59
3,S8W,2.25
4,S8R,1.65
5,S8E,2.63
6,S8K,2.96
7,S8D,2.65
8,T2W,1.5
9,T2Y,1.86
10,T2N,2.38
11,T2I,2.26
12,T2H,2.85
13,T2L,2.84
14,T2S,1.62
15,T2A,2.93
16,T2R,2.34
17,T2V,2.54
18,T2F,1.97
19,T2E,3.04
20,T2C,1.55
21,T2Q,2.33
22,T2K,2.15
23,T2M,2.11
24,T2G,2.06

row,Variant,protein stability index
1,T2D,2.73
2,P3E,2.25
3,P3Y,1.61
4,P3I,2.49
5,P3D,2.32
6,P3S,2.17
7,P3N,2.27
8,P3M,2.24
9,P3K,2.44
10,P3C,1.81
11,P3L,2.1
12,P3Q,2.39
13,P3G,2.27
14,P3H,2.05
15,P3T,2.21
16,P3R,2.5
17,P3A,1.88
18,P3W,3.24
